# Test results as given in patent publication US20150335719A1, “Intravitreal Injection of a Chimeric Phage Endolysin Ply187; Protection from Staphylococcus aureus Endophthalmitis” (priority 2014, published 2015).
# Values joined by “and” are separate entries in the source; they are usually repeats but may differ in a detail not shown here. Equal entries are not always repeated.
# B1: Ply187AN-KSH3b: staphylococcal peptidoglycan hydrolase fusion protein: endopeptidase domain of prophage endolysin Ply187 plus SH3b cell wall-binding domain of phage K endolysin LysK (SEQ ID NO:1) (protein)
# chain: MALPKTGKPTAKQVVDWAINLIGSGVDVDGYYGRQCWDLPNYIFNRYWNFKTPGNARDMAWYRYPEGFKVFRNTSDFVPKPGDIAVWTGGNYNWNTWGHTGIVVGPSTKSYFYSVDQNWNNSNSYVGSPAAKIKHSYFGVTHFVRPAYKAEPKPTPPLESTPATRPVTGSWKKNQYGTWYKPENATFVNGNQPIVTRIGSPFLNAPVGGNLPAGATIVYDEVCIQAGHIWIGYNAYNGNRVYCPVRTCQGVPPNQIPGVAWGVFKVEHHHHHH
# modifications: Chemically Synthesized Fusion Protein
# Legend:
# [1] = system: neutrophil (PMN) infiltration in retina/vitreous; test: Mouse S. aureus endophthalmitis: PMN infiltration by flow cytometry (CD45/Ly6G); format: in vivo, C57BL/6 mice; settings: vs vehicle-treated/control eyes, 24 h post treatment
# Method: FIG. 6 depicts infiltration of polymorphonuclear cells (PMNs) in the Ply187AN-KSH3b-treated mouse retina/vitreous cavity. Infected eyes were given intravitreal injections of either EB or chimeric Ply187AN-KSH3b for either 6 or 12 h post infection. Twenty four hour post Ply187AN-KSH3b treatment, the eyes (n=6) were enucleated and the retina/vitreous humor from two eyes were pooled to make single-cell suspensions. The cells were stained with anti-CD45 and anti-Ly6G mAbs. Post-acquisition, the cells were size-gated to differentiate them from debris. The percentage of dually positive PMNs was determined using a CD45-versus-Ly6G dot plot (upper-right quadrant). The data are summarized in a bar graph representative of duplicate experiments. *p<0.05 (student t-test)
# Following euthanasia, the retinas were isolated from the eyes as described by Skeie et al. (2011. J. Vis. Exp. 50:2795) and were digested in Accumax (Millipore, Billerica, Mass.) for 10 min at 37° C. Retinas from two eyes were pooled together to obtain a sufficient number of cells. Following digestion, the retinal tissue was passed through a 23-gauge needle & syringe and filtered through a 40 μm cell strainer (BD Falcon, San Jose, Calif.). […] After subsequent washing steps, the cells were acquired on an Accuri C6 flow cytometer (Accuri, Ann Arbor, Mich.), and the data were analyzed using Accuri C6 software (Accuri, Ann Arbor, Mich.).
# [2] = system: S. aureus RN6390 endophthalmitis; test: Mouse S. aureus endophthalmitis: histology (H&E) and TUNEL staining of retina; format: in vivo, C57BL/6 mice
# Method: FIGS. 3A-3E show the effects of intravitreal injection of chimeric Ply187AN-KSH3b on the severity of S. aureus endophthalmitis. The eyes (n=10) of C57BL/6 mice were infected with S. aureus strain RN6390 and following either 6 h or 12 h post-infection, Ply187AN-KSH3b or EB (EB C) was administered by intravitreal injection. FIG. 3A depicts individual eyes assigned clinical scores (range 0 to 4; black dots represent an eye) and presented as mean clinical scores (bar with SEM). […] FIG. 3E depicts the total number of dead cells in the retinal sections that were counted and are presented as mean±SD of the TUNEL positive cells. A student's t test (**, p<0.005) was used for the statistical analysis and comparisons were made between the S. aureus (SA) control, SA+EBC, and SA+Ply187AN-KSH3b-treated group.
# The embedding, sectioning, and Hematoxylin and Eosin (H & E) staining was performed by Excalibur Pathology Inc. (Oklahoma City, Okla.). For immunostaining, the eyes were fixed in Tissue-Tek® O.C.T. (Sakura, Torrance, Calif.) and five-micrometer-thick sagittal sections were collected from each eye and mounted onto microscope slides. TUNEL staining was performed on retinal cryo-sections using ApopTag® Fluorescein In situ Apoptosis Detection Kit as per manufacturer's instruction (Millipore, Billerica, Mass.).
# [3] = system: S. aureus strain RN6390; test: Inoculum effect study in vitro; format: cell-based, Staphylococcus aureus; settings: dilutions 1:10,000 to 1:10, 1 h at MIC
# Text: FIGS. 4 A, B and C depict the effect of chimeric Ply187AN-KSH3b on bacterial growth in vivo and in the vitreous humor (VH) in vitro and with increasing inoculums in vitro respectively. […] Twenty-four hours after the treatment, the eyes were enucleated, homogenized and the bacterial burden was estimated via serial dilution plating. FIG. 4B depicts a test showing the effect of the vitreous humor on Ply187AN-KSH3b antimicrobial activity where Ply187AN-KSH3b was mixed with calf vitreous humor and inoculated with 10^5 CFU of S. aureus. The survival of the bacteria was enumerated by CFU count at 2, 4 and 6 h of incubation. Statistical analysis was performed using unpaired student's t test (*, p<0.05; **, p<0.005; ***, p<0.0005). […] An increasing number of dilutions (1:10,000 to 1:10) of logarithmic phase of S. aureus (RN6390 strain) were treated with Ply187AN-KSH3b for 1 h followed by CFU enumeration on TSA plates. Statistical analysis was performed using unpaired student's t test (*, p<0.05; **, p<0.005; ***, p<0.0005).
# To determine the effect of Vitreous Humor (VH) on antimicrobial activity of chimeric Ply187AN-KSH3b in vitro, bacteria (10^5 CFU) were incubated with chimeric Ply187AN-KSH3b in the presence of calf VH. Following incubation at 37° C. for the desired time, bacterial growth in VH was enumerated by serial dilution plating. […]
molecule,measurement,setting,value
B1,reduction in neutrophil (PMN) infiltration,[1],40-50% and ~50%
same,histological analysis (H&E) of retina,[2]; 1 μg/eye intravitreal,preserved the integrity of the retina
same,"TUNEL+ cells (retinal cell death), average",[2]; retinal sections,17.66 TUNEL^+ cells/eye
same,activity with increasing bacterial numbers,[3],no reduction in Ply187AN-KSH3b activity
